Assay results taken from paper doi:10.1101/2022.11.09.515855.
Where two headings read alike, the source gives them in different places.

Tests used:
[1] = biological target: T1, Gac (C-terminal domain of GyrA, recombinant) (Borrelia burgdorferi B31) (UniProt O51396); experiment: competition
T1 sequence: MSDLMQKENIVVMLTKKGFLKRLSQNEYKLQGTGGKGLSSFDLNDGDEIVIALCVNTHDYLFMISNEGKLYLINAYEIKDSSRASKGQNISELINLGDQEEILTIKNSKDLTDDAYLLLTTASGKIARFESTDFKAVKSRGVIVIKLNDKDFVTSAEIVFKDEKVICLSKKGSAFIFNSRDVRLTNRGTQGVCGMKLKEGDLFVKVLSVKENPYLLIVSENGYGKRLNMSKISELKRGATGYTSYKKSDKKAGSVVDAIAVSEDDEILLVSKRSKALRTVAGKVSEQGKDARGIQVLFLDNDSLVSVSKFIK

[2] = biological target: T1, Gac (C-terminal domain of GyrA, recombinant) (Borrelia burgdorferi B31); experiment: competition; remark: listed apart in the source

Substance	binding signal (fold reduction of shift) [1]	binding signal (fold reduction of shift) [2]	binding signal (fold change of shift) [1]
B31 ospC operator/promoter unlabeled	2.6		
Ip89 ospC operator/promoter unlabeled	2	> 8	
empty pCR2.1 amplicon			< 1.3
